Laboratory results as given in patent US20130251703A1 (Novartis, published 2013).

Tests used:
[1] = target: T1, human HER3 endogenously expressed on human cancer cells (SK-Br-3, BT-474, MCF7) (human, UniProt P21860 20-1342); assay: cell-based or functional assay
[2] = target: T1, human HER3 endogenously expressed on …; assay: cell-based or functional assay; remark: listed apart in the source
[3] = target: T1, human HER3 endogenously expressed on …; assay: cell-based or functional assay; remark: listed apart in the source
[4] = target: T2, Hu HER3: CD33-[Human HER3, residues 20-640]-TAG (human, UniProt P21860 20-640); assay: solution equilibrium titration (SET), IgG, ECL read-out
T2 construct: also called hu HER3-Tag; HER3-Tag; not shown: C-terminal TAG (e.g. FLAG TAG)

Row | Binder | MCF7 pHER3 % inhibition [2] [%] | MCF7 pHER3 IC50 [2] [pM] | SK-Br-3 pHER3 % inhibition [2] [%] | SK-Br-3 pHER3 IC50 [2] [pM] | other results
1 | MOR13657 (antibody, human IgG1, lambda, V domains shown, Tested as IgG) VH: QVQLVQSGAEVKKPGASVKVSCKASGYTFTSYDIHWVRQAPGQGLEWMGRIDPYSGNTNYAQKFQGRVTMTRDTSISTAYMELSRLRSEDTAVYYCARGSFYTRDSYFDVWGQGTLVTVSS VL: DIALTQPASVSGSPGQSITISCTGTSSDVGTYNQVSWYQQHPGKAPKLMIYGVSKRPSGVSNRFSGSKSGNTASLTISGLQAEDEADYYCSARDGWSEYVFGGGTKLTVLG | 75 | 283 | 71 | 142 | BT-474 proliferation % inhibition [1]: 30%; BT-474 proliferation IC50 [1]: 0.473 nM; SK-Br-3 proliferation % inhibition [1]: 39%; SK-Br-3 proliferation IC50 [1]: 0.179 nM; BT474 pHER3 % inhibition [2]: 63%; BT474 pHER3 IC50 [2]: 372 pM; BT-474 pAkt % inhibition [3]: 53%; BT-474 pAkt IC50 [3]: 586 pM; MCF7 pAkt % inhibition [3]: 75%; MCF7 pAkt IC50 [3]: 385 pM; SK-Br-3 pAkt % inhibition [3]: 91%; SK-Br-3 pAkt IC50 [3]: 33 pM; Kd [4]: 0.087 nM
2 | MOR13660 (antibody, human IgG1, lambda, V domains shown) VH: QVQLVQSGAEVKKPGASVKVSCKASGYTFTSYDIHWVRQAPGQGLEWMGRIDPYSGNTNYAQKFQGRVTMTRDTSISTAYMELSRLRSEDTAVYYCARGSFYTRDSYFDVWGQGTLVTVSS VL: DIALTQPASVSGSPGQSITISCTGTSSDVGTYNQVSWYQQHPGKAPKLMIYGVSKRPSGVSNRFSGSKSGNTASLTISGLQAEDEADYYCAVRGSQTLVFGGGTKLTVLG | 49 | 533 | 54 | 188 | –
3 | MOR13670 (antibody, human IgG1, lambda, V domains shown) VH: QVQLVQSGAEVKKPGASVKVSCKASGYTFTSYDIHWVRQAPGQGLEWMGRIDPYSGNTNYAQKFQGRVTMTRDTSISTAYMELSRLRSEDTAVYYCARGSFYTRDSYFDVWGQGTLVTVSS VL: DIALTQPASVSGSPGQSITISCTGTSSDVGTYNQVSWYQQHPGKAPKLMIYGVSKRPSGVSNRFSGSKSGNTASLTISGLQAEDEADYYCQVADQGWHQVFGGGTKLTVLG | 69 | 643 | 60 | 730 | –
4 | MOR13668 (antibody, human IgG1, lambda, V domains shown) VH: QVQLVQSGAEVKKPGASVKVSCKASGYTFTSYDIHWVRQAPGQGLEWMGRIDPYSGNTNYAQKFQGRVTMTRDTSISTAYMELSRLRSEDTAVYYCARGSFYTRDSYFDVWGQGTLVTVSS VL: DIALTQPASVSGSPGQSITISCTGTSSDVGTYNQVSWYQQHPGKAPKLMIYGVSKRPSGVSNRFSGSKSGNTASLTISGLQAEDEADYYCQVWDSDQAMVFGGGTKLTVLG | 77 | 1640 | 58 | 657 | –
5 | MOR13656 (antibody, human IgG1, lambda, V domains shown) VH: QVQLVQSGAEVKKPGASVKVSCKASGYTFTSYDIHWVRQAPGQGLEWMGRIDPYSGNTNYAQKFQGRVTMTRDTSISTAYMELSRLRSEDTAVYYCARGSFYTRDSYFDVWGQGTLVTVSS VL: DIALTQPASVSGSPGQSITISCTGTSSDVGTYNQVSWYQQHPGKAPKLMIYGVSKRPSGVSNRFSGSKSGNTASLTISGLQAEDEADYYCAVRDSVWHVFGGGTKLTVLG | 73 | 504 | 60 | 86 | –
6 | MOR13664 (antibody, human IgG1, lambda, V domains shown) VH: QVQLVQSGAEVKKPGASVKVSCKASGYTFTSYDIHWVRQAPGQGLEWMGRIDPYSGNTNYAQKFQGRVTMTRDTSISTAYMELSRLRSEDTAVYYCARGSFYTRDSYFDVWGQGTLVTVSS VL: DIALTQPASVSGSPGQSITISCTGTSSDVGTYNQVSWYQQHPGKAPKLMIYGVSKRPSGVSNRFSGSKSGNTASLTISGLQAEDEADYYCSAYDASTQVVFGGGTKLTVLG | 55 | 480 | 57 | 388 | –
7 | MOR13669 (antibody, human IgG1, lambda, V domains shown) VH: QVQLVQSGAEVKKPGASVKVSCKASGYTFTSYDIHWVRQAPGQGLEWMGRIDPYSGNTNYAQKFQGRVTMTRDTSISTAYMELSRLRSEDTAVYYCARGSFYTRDSYFDVWGQGTLVTVSS VL: DIALTQPASVSGSPGQSITISCTGTSSDVGTYNQVSWYQQHPGKAPKLMIYGVSKRPSGVSNRFSGSKSGNTASLTISGLQAEDEADYYCSTATAMTVSLVFGGGTKLTVLG | 66 | – | 58 | 743 | –
8 | MOR13661 (antibody, human IgG1, lambda, V domains shown) VH: QVQLVQSGAEVKKPGASVKVSCKASGYTFTSYDIHWVRQAPGQGLEWMGRIDPYSGNTNYAQKFQGRVTMTRDTSISTAYMELSRLRSEDTAVYYCARGSFYTRDSYFDVWGQGTLVTVSS VL: DIALTQPASVSGSPGQSITISCTGTSSDVGTYNQVSWYQQHPGKAPKLMIYGVSKRPSGVSNRFSGSKSGNTASLTISGLQAEDEADYYCGSRDSWAHVFGGGTKLTVLG | 55 | 649 | 55 | 421 | –
9 | MOR13659 (antibody, human IgG1, lambda, V domains shown) VH: QVQLVQSGAEVKKPGASVKVSCKASGYTFTSYDIHWVRQAPGQGLEWMGRIDPYSGNTNYAQKFQGRVTMTRDTSISTAYMELSRLRSEDTAVYYCARGSFYTRDSYFDVWGQGTLVTVSS VL: DIALTQPASVSGSPGQSITISCTGTSSDVGTYNQVSWYQQHPGKAPKLMIYGVSKRPSGVSNRFSGSKSGNTASLTISGLQAEDEADYYCGSRTSHNWVFGGGTKLTVLG | 66 | 505 | 51 | 277 | –
10 | MOR13665 (antibody, human IgG1, lambda, V domains shown) VH: QVQLVQSGAEVKKPGASVKVSCKASGYTFTSYDIHWVRQAPGQGLEWMGRIDPYSGNTNYAQKFQGRVTMTRDTSISTAYMELSRLRSEDTAVYYCARGSFYTRDSYFDVWGQGTLVTVSS VL: DIALTQPASVSGSPGQSITISCTGTSSDVGTYNQVSWYQQHPGKAPKLMIYGVSKRPSGVSNRFSGSKSGNTASLTISGLQAEDEADYYCQSAAIATSVFGGGTKLTVLG | 62 | 795 | 59 | 546 | –
11 | MOR12922 (antibody, human IgG1, lambda, V domains shown) VH: QVQLVQSGAEVKKPGASVKVSCKASGYTFTGYYMHWVRQAPGQGLEWMGVIDPYSGWTEYAQKFQGRVTMTRDTSISTAYMELSRLRSEDTAVYYCARGSFYTRDSYFDVWGQGTLVTVSS VL: DIALTQPASVSGSPGQSITISCTGTSSDVGTYNQVSWYQQHPGKAPKLMIYGVSKRPSGVSNRFSGSKSGNTASLTISGLQAEDEADYYCSSRDLIGHYVFGGGTKLTVLG | 62 | 788 | 64 | 81 | MCF7 proliferation % inhibition [1]: 27%; MCF7 proliferation IC50 [1]: 0.467 nM; SK-Br-3 proliferation % inhibition [1]: 36%; SK-Br-3 proliferation IC50 [1]: 0.709 nM; BT474 pHER3 % inhibition [2]: 58%; BT474 pHER3 IC50 [2]: 702 pM
12 | MOR13667 (antibody, human IgG1, lambda, V domains shown) VH: QVQLVQSGAEVKKPGASVKVSCKASGYTFTSYDIHWVRQAPGQGLEWMGRIDPYSGNTNYAQKFQGRVTMTRDTSISTAYMELSRLRSEDTAVYYCARGSFYTRDSYFDVWGQGTLVTVSS VL: DIALTQPASVSGSPGQSITISCTGTSSDVGTYNQVSWYQQHPGKAPKLMIYGVSKRPSGVSNRFSGSKSGNTASLTISGLQAEDEADYYCQAWDYRQTIVFGGGTKLTVLG | 72 | 603 | 59 | 267 | –
13 | MOR13662 (antibody, human IgG1, lambda, V domains shown) VH: QVQLVQSGAEVKKPGASVKVSCKASGYTFTSYDIHWVRQAPGQGLEWMGRIDPYSGNTNYAQKFQGRVTMTRDTSISTAYMELSRLRSEDTAVYYCARGSFYTRDSYFDVWGQGTLVTVSS VL: DIALTQPASVSGSPGQSITISCTGTSSDVGTYNQVSWYQQHPGKAPKLMIYGVSKRPSGVSNRFSGSKSGNTASLTISGLQAEDEADYYCYSRAKTHWTDVFGGGTKLTVLG | 52 | 550 | 56 | 331 | –
14 | MOR13663 (antibody, human IgG1, lambda, V domains shown) VH: QVQLVQSGAEVKKPGASVKVSCKASGYTFTSYDIHWVRQAPGQGLEWMGRIDPYSGNTNYAQKFQGRVTMTRDTSISTAYMELSRLRSEDTAVYYCARGSFYTRDSYFDVWGQGTLVTVSS VL: DIALTQPASVSGSPGQSITISCTGTSSDVGTYNQVSWYQQHPGKAPKLMIYGVSKRPSGVSNRFSGSKSGNTASLTISGLQAEDEADYYCSVWTSIKVFVFGGGTKLTVLG | 58 | 449 | 56 | 290 | –
15 | MOR12920 (antibody, human IgG1, lambda, V domains shown) VH: QVQLVQSGAEVKKPGASVKVSCKASGYTFTGYYMHWVRQAPGQGLEWMGDIEPYHGKPLYAQKFQGRVTMTRDTSISTAYMELSRLRSEDTAVYYCARGSFYTRDSYFDVWGQGTLVTVSS VL: DIALTQPASVSGSPGQSITISCTGTSSDVGTYNQVSWYQQHPGNAPKLMIYGVSKRPSGVSNRFSGSKSGNTASLTISGLQAEDEADYYCSSRDLIGHYVFGGGTKLTVLG | 66 | 3070 | 57 | 851 | MCF7 proliferation % inhibition [1]: 22%; MCF7 proliferation IC50 [1]: 1.92 nM; SK-Br-3 proliferation % inhibition [1]: 32%; SK-Br-3 proliferation IC50 [1]: 2.91 nM; BT474 pHER3 % inhibition [2]: 57%; BT474 pHER3 IC50 [2]: 2020 pM
